# Reference: IntAct's records for PubMed 21505419
# B1: Suppressor protein STP22 of temperature-sensitive alpha-factor receptor and arginine permease (Saccharomyces cerevisiae), P25604 (parent)
# chain: MSANGKISVPEAVVNWLFKVIQPIYNDGRTTFHDSLALLDNFHSLRPRTRVFTHSDGTPQLLLSIYGTISTGEDGSSPHSIPVIMWVPSMYPVKPPFISINLENFDMNTISSSLPIQEYIDSNGWIALPILHCWDPAAMNLIMVVQELMSLLHEPPQDQAPSLPPKPNTQLQQEQNTPPLPPKPKSPHLKPPLPPPPPPQPASNALDLMDMDNTDISPTNHHEMLQNLQTVVNELYREDVDYVADKILTRQTVMQESIARFHEIIAIDKNHLRAVEQAIEQTMHSLNAQIDVLTANRAKVQQFSSTSHVDDEDVNSIAVAKTDGLNQLYNLVAQDYALTDTIECLSRMLHRGTIPLDTFVKQGRELARQQFLVRWHIQRITSPLS
# partner: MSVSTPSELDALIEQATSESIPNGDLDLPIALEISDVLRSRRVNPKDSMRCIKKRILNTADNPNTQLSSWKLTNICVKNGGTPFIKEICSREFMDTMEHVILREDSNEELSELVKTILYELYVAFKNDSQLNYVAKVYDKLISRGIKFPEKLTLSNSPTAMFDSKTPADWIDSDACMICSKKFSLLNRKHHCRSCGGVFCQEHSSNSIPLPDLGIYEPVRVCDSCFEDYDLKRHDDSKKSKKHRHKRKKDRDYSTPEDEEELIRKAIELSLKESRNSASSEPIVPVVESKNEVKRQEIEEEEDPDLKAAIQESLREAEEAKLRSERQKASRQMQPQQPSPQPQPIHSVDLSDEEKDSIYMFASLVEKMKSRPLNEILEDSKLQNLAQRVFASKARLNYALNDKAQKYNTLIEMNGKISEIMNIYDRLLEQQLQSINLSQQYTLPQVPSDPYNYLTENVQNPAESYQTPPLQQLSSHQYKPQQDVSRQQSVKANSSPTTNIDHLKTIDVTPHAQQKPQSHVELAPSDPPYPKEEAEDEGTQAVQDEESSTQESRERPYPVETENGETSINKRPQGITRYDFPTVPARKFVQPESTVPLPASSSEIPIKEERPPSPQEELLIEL
# Variants of: B1
# Conditions: with vps27_yeast VPS27, P40343
row,effect of a mutation on the interaction,Variant
1,decreasing interaction,MSANGKISVPEAVVNWLFKVIQPIYNDGRTTFHDSLALLDNFHSLRPRVRVFTHSDGTPQLLLSIYGTISTGEDGSSPHSIPVIMWVPSMYPVKPPFISINLENFDMNTISSSLPIQEYIDSNGWIALPILHCWDPAAMNLIMVVQELMSLLHEPPQDQAPSLPPKPNTQLQQEQNTPPLPPKPKSPHLKPPLPPPPPPQPASNALDLMDMDNTDISPTNHHEMLQNLQTVVNELYREDVDYVADKILTRQTVMQESIARFHEIIAIDKNHLRAVEQAIEQTMHSLNAQIDVLTANRAKVQQFSSTSHVDDEDVNSIAVAKTDGLNQLYNLVAQDYALTDTIECLSRMLHRGTIPLDTFVKQGRELARQQFLVRWHIQRITSPLS [T49V]

# Variants of: B1
# Conditions: with vps27_yeast VPS27, P40343
# Remark: another data set of the same source
row,effect of a mutation on the interaction,Variant
1,decreasing interaction,MSANGKISVPEAVVNWLFKVIQPIYNDGRTTFHDSLALLDNFHSLRPRTRVFTHSDGTPQNLLSIYGTISTGEDGSSPHSIPVIMWVPSMYPVKPPFISINLENFDMNTISSSLPIQEYIDSNGWIALPILHCWDPAAMNLIMVVQELMSLLHEPPQDQAPSLPPKPNTQLQQEQNTPPLPPKPKSPHLKPPLPPPPPPQPASNALDLMDMDNTDISPTNHHEMLQNLQTVVNELYREDVDYVADKILTRQTVMQESIARFHEIIAIDKNHLRAVEQAIEQTMHSLNAQIDVLTANRAKVQQFSSTSHVDDEDVNSIAVAKTDGLNQLYNLVAQDYALTDTIECLSRMLHRGTIPLDTFVKQGRELARQQFLVRWHIQRITSPLS [L61N]

# Variants of: B1
# Conditions: with vps27_yeast VPS27, P40343
# Remark: another data set of the same source
row,effect of a mutation on the interaction,Variant
1,disrupting interaction,MSANGKISVPEAVVNALFKVIQPIYNDGRTTFHDSLALLDNFHSLRPRTRVFTHSDGTPQLLLSIYGTISTGEDGSSPHSIPVIMWVPSMYPVKPPFISINLENFDMNTISSSLPIQEYIDSNGWIALPILHCWDPAAMNLIMVVQELMSLLHEPPQDQAPSLPPKPNTQLQQEQNTPPLPPKPKSPHLKPPLPPPPPPQPASNALDLMDMDNTDISPTNHHEMLQNLQTVVNELYREDVDYVADKILTRQTVMQESIARFHEIIAIDKNHLRAVEQAIEQTMHSLNAQIDVLTANRAKVQQFSSTSHVDDEDVNSIAVAKTDGLNQLYNLVAQDYALTDTIECLSRMLHRGTIPLDTFVKQGRELARQQFLVRWHIQRITSPLS [W16A]
